Source: the supplement of paper PMC5998384

Tests used:
HeLa Kyoto [1] = experiment: solubility change mitosis vs G1/S (difference of NP-40 vs SDS log2 ratios) (log2 ratio difference); higher = more soluble in mitosis
HeLa Kyoto [2] = experiment: solubility in G1/S (NP-40 vs SDS abundance) (log2 ratio); higher = more soluble; settings: cell cycle stage: G1/S
HeLa Kyoto [3] = experiment: melting temperature (median over replicates), in situ; higher = more thermally stable
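For melting temperature (median over replicates), in situ in this document: HeLa Kyoto cells synchronized by double thymidine or nocodazole block, proteins quantified by TMT10plex mass spectrometry, three independent biological replicates.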
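For solubility change mitosis vs G1/S (difference of NP-40 vs SDS log2 ratios) in this document: synchronized HeLa Kyoto cells (double thymidine block for G1/S, nocodazole release for mitosis), protein amounts in NP-40 versus SDS lysates quantified by mass spectrometry, three biological replicates.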
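For solubility in G1/S (NP-40 vs SDS abundance) in this document: HeLa Kyoto cells arrested at G1/S by double thymidine block, proteins quantified by TMT10plex mass spectrometry in mild NP-40 versus SDS extracts, three biological replicates.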

DNAJC19, sequence (chain, as listed by the source): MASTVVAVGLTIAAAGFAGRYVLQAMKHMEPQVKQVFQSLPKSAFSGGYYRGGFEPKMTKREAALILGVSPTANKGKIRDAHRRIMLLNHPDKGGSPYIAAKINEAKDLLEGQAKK
GNG12, sequence (chain, as listed by the source): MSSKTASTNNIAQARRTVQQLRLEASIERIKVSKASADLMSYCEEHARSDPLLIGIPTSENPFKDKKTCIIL
GNPTG, sequence (chain, as listed by the source): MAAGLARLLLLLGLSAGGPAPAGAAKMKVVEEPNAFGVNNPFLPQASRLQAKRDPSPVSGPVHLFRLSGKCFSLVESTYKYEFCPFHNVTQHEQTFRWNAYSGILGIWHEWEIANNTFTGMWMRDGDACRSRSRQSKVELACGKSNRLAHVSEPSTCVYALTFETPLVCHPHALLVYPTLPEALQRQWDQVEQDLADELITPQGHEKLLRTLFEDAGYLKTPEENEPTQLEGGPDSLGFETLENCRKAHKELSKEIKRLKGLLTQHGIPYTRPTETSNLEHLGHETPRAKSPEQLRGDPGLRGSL
DNAJC15, sequence (chain, as listed by the source): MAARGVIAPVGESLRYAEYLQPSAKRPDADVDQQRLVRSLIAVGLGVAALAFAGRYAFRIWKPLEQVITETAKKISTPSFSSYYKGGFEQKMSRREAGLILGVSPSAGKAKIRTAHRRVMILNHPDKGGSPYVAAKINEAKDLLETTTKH
HMGN3, sequence (chain, as listed by the source): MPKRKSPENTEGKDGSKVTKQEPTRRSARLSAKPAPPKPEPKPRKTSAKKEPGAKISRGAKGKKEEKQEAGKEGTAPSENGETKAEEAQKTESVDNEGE
STK25, sequence (chain, as listed by the source): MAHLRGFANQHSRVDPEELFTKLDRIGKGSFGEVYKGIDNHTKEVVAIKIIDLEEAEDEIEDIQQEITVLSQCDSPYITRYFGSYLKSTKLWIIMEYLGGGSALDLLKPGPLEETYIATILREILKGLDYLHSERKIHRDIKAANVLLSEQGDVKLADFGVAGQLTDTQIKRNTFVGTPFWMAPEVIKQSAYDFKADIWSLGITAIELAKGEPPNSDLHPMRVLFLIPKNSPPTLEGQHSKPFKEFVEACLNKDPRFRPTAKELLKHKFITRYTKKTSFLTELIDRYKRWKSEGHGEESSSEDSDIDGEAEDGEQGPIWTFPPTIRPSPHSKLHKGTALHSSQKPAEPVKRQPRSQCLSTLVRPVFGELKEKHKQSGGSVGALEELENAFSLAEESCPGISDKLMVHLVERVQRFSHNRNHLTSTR
SENP3, sequence (chain, as listed by the source): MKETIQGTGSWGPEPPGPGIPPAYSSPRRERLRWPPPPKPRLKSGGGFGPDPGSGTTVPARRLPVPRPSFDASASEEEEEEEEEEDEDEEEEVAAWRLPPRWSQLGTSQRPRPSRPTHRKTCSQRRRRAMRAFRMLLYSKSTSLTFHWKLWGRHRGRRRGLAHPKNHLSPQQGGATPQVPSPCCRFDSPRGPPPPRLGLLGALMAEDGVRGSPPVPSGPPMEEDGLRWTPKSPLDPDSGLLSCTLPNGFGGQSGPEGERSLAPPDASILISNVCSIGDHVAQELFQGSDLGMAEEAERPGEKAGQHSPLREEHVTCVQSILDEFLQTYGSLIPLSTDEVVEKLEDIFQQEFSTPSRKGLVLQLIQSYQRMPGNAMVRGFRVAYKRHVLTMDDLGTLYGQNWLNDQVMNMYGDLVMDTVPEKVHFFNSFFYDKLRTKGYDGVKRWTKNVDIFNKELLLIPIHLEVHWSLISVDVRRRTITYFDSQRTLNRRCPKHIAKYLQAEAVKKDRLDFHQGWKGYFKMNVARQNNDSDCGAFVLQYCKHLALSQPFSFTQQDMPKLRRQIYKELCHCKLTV
POMGNT1, sequence (chain, as listed by the source): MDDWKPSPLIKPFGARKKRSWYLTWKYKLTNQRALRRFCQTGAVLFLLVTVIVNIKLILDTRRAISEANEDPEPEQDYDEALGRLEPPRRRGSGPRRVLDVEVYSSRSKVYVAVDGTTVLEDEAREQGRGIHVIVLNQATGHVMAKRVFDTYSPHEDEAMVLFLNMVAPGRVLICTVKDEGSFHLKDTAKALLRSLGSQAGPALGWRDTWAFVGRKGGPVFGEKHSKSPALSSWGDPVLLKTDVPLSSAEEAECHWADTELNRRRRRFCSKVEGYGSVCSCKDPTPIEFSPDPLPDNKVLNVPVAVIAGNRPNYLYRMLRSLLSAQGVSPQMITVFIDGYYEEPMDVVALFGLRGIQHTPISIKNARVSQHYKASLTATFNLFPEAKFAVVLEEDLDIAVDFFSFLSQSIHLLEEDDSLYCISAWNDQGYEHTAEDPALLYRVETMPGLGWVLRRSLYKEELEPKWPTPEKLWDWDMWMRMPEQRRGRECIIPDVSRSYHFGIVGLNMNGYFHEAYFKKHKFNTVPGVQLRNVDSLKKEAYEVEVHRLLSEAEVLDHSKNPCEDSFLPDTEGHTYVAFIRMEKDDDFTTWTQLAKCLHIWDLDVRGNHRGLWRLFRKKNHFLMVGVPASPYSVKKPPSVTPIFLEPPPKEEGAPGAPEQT

Substance	solubility change mitosis (log2) (HeLa Kyoto [1])	solubility in G1/S (log2) (HeLa Kyoto [2])	melting temperature (HeLa Kyoto [3]; cell cycle stage: mitosis)	melting temperature (HeLa Kyoto [3]; cell cycle stage: G1/S)
ABTB2	-0.181	0.00296	48.8 °C	–
BCL9L	0.083	0.294	54.4 °C	55.7 °C
CHD8	-0.0952	-0.156	50.1 °C	46.5 °C
CHD9	0.0275	-0.312	50.1 °C	–
DNAJC15	-0.164	0.11	51.2 °C	51 °C
DNAJC19	0.348	-0.0616	53.5 °C	53.4 °C
GNG12	0.506	-1.84	54 °C	52.4 °C
GNPTG	0.688	-0.582	53.9 °C	54 °C
H2AFV	0.429	-0.332	–	52.5 °C
HMGN3	1.55	-0.266	56.8 °C	–
MAAAAAGAGSGPWAAQEKQFPPALLSFFIYNPRFGPREGQEENKILFYHPNEVEKNEKIRNVGLCEAIVQFTRTFSPSKPAKSLHTQKNRQFFNEPEENFWMVMVVRNPIIEKQSKDGKPVIEYQEEELLDKVYSSVLRQCYSMYKLFNGTFLKAMEDGGVKLLKERLEKFFHRYLQTLHLQSCDLLDIFGGISFFPLDKMTYLKIQSFINRMEESLNIVKYTAFLYNDQLIWSGLEQDDMRILYKYLTTSLFPRHIEPELAGRDSPIRAEMPGNLQHYGRFLTGPLNLNDPDAKCRFPKIFVNTDDTYEELHLIVYKAMSAAVCFMIDASVHPTLDFCRRLDSIVGPQLTVLASDICEQFNINKRMSGSEKEPQFKFIYFNHMNLAEKSTVHMRKTPSVSLTSVHPDLMKILGDINSDFTRVDEDEEIIVKAMSDYWVVGKKSDRRELYVILNQKNANLIEVNEEVKKLCATQFNNIFFLD [CCZ1]	-0.169	0.0726	51.8 °C	50.9 °C
MAAAGARPVELGFAESAPAWRLRSEQFPSKVGGRPAWLGAAGLPGPQALACELCGRPLSFLLQVYAPLPGRPDAFHRCIFLFCCREQPCCAGLRVFRNQLPRKNDFYSYEPPSENPPPETGESVCLQLKSGAHLCRVCGCLGPKTCSRCHKAYYCSKEHQTLDWRLGHKQACAQPDHLDHIIPDHNFLFPEFEIVIETEDEIMPEVVEKEDYSEIIGSMGEALEEELDSMAKHESREDKIFQKFKTQIALEPEQILRYGRGIAPIWISGENIPQEKDIPDCPCGAKRILEFQVMPQLLNYLKADRLGKSIDWGILAVFTCAESCSLGTGYTEEFVWKQDVTDTP [PDCD2]	-0.0555	-0.116	48.3 °C	48.5 °C
MAAPEAPPLDRVFRTTWLSTECDSHPLPPSYRKFLFETQAADLAGGTTVAAGNLLNESEKDCGQDRRAPGVQPCRLVTMTSVVKTVYSLQPPSALSGGQPADTQTRATSKSLLPVRSKEVDVSKQLHSGGPENDVTKITKLRRENGQMKATDTATRRNVRKGYKPLSKQKSEEELKDKNQLLEAVNKQLHQKLTETQGELKDLTQKVELLEKFRDNCLAILESKGLDPALGSETLASRQESTTDHMDSMLLLETLQEELKLFNETAKKQMEELQALKVKLEMKEERVRFLEQQTLCNNQVNDLTTALKEMEQLLEM [KNSTRN]	0.517	0.269	50.5 °C	48.7 °C
MAAPEAWRARSCWFCEVAAATTMEATSREAAPAKSSASGPNAPPALFELCGRAVSAHMGVLESGVWALPGPILQSILPLLNIYYLERIEETALKKGLSTQAIWRRLWDELMKTRPSSLESVTCWRAKFMEAFFSHVLRGTIDVSSDRRLCDQRFSPLLHSSRHVRQLTICNMLQGATELVAEPNRRVLETLASSLHTLKFRHLLFSDVAAQQSLRQLLHQLIHHGAVSQVSLYSWPVPESALFILILTMSAGFWQPGPGGPPCRLCGEASRGRAPSRDEGSLLLGSRRPRRDAAERCAAALMASRRKSEAKQMPRAAPATRVTRRSTQESLTAGGTDLKRELHPPATSHEAPGTKRSPSAPAATSSASSSTSSYKRAPASSAPQPKPLKRFKRAAGKKGARTRQGPGAESEDLYDFVFIVAGEKEDGEEMEIGEVACGALDGSDPSCLGLPALEASQRFRSISTLELFTVPLSTEAALTLCHLLSSWVSLESLTLSYNGLGSNIFRLLDSLRALSGQAGCRLRALHLSDLFSPLPILELTRAIVRALPLLRVLSIRVDHPSQRDNPGVPGNAGPPSHIIGDEEIPENCLEQLEMGFPRGAQPAPLLCSVLKASGSLQQLSLDSATFASPQDFGLVLQTLKEYNLALKRLSFHDMNLADCQSEVLFLLQNLTLQEITFSFCRLFEKRPAQFLPEMVAAMKGNSTLKGLRLPGNRLGNAGLLALADVFSEDSSSSLCQLDISSNCIKPDGLLEFAKRLERWGRGAFGHLRLFQNWLDQDAVTAREAIRRLRATCHVVSDSWDSSQAFADYVSTM [LRRC41]	0.0944	-0.31	49.5 °C	47.9 °C
MAAPSGTVSDSESSNSSSDAEELERCREAAMPAWGLEQRPHVAGKPRAGAANSQLSTSQPSLRHKVNEHEQDGNELQTTPEFRAHVAKKLGALLDSFITISEAAKEPAKAKVQKVALEDDGFRLFFTSVPGGREKEESPQPRRKRQPSSSSEDSDEEWRRCREAAVSASDILQESAIHSPGTVEKEAKKKRKLKKKAKKVASVDSAVAATTPTSMATVQKQKSGELNGDQVSLGTKKKKKAKKASETSPFPPAKSATAIPAN [C12ORF43]	0.379	-0.08	56.9 °C	56.1 °C
MAAQGAAAAVAAGTSGVAGEGEPGPGENAAAEGTAPSPGRVSPPTPARGEPEVTVEIGETYLCRRPDSTWHSAEVIQSRVNDQEGREEFYVHYVGFNRRLDEWVDKNRLALTKTVKDAVQKNSEKYLSELAEQPERKITRNQKRKHDEINHVQKTYAEMDPTTAALEKEHEAITKVKYVDKIHIGNYEIDAWYFSPFPEDYGKQPKLWLCEYCLKYMKYEKSYRFHLGQCQWRQPPGKEIYRKSNISVYEVDGKDHKIYCQNLCLLAKLFLDHKTLYFDVEPFVFYILTEVDRQGAHIVGYFSKEKESPDGNNVACILTLPPYQRRGYGKFLIAFSYELSKLESTVGSPEKPLSDLGKLSYRSYWSWVLLEILRDFRGTLSIKDLSQMTSITQNDIISTLQSLNMVKYWKGQHVICVTPKLVEEHLKSAQYKKPPITVDSVCLKWAPPKHKQVKLSKK [KAT8]	-0.249	-0.134	49.9 °C	–
MVVPSLKLQDLIEEIRGAKTQAQEREVIQKECAHIRASFRDGDPVHRHRQLAKLLYVHMLGYPAHFGQMECLKLIASSRFTDKRVGYLGAMLLLDERHDAHLLITNSIKNDLSQGIQPVQGLALCTLSTMGSAEMCRDLAPEVEKLLLQPSPYVRKKAILTAVHMIRKVPELSSVFLPPCAQLLHERHHGILLGTITLITELCERSPAALRHFRKVVPQLVHILRTLVTMGYSTEHSISGVSDPFLQVQILRLLRILGRNHEESSETMNDLLAQVATNTDTSRNAGNAVLFETVLTIMDIRSAAGLRVLAVNILGRFLLNSDRNIRYVALTSLLRLVQSDHSAVQRHRPTVVECLRETDASLSRRALELSLALVNSSNVRAMMQELQAFLESCPPDLRADCASGILLAAERFAPTKRWHIDTILHVLTTAGTHVRDDAVANLTQLIGGAQELHAYSVRRLYNALAEDISQQPLVQVAAWCIGEYGDLLLAGNCEEIEPLQVDEEEVLALLEKVLQSHMSLPATRGYALTALMKLSTRLCGDNNRIRQVVSIYGSCLDVELQQRAVEYDTLFRKYDHMRAAILEKMPLVERDGPQADEEAKESKEAAQLSEAAPVPTEPQASQLLDLLDLLDGASGDVQHPPHLDPSPGGALVHLLDLPCVPPPPAPIPDLKVFEREGVQLNLSFIRPPENPALLLITITATNFSEGDVTHFICQAAVPKSLQLQLQAPSGNTVPARGGLPITQLFRILNPNKAPLRLKLRLTYDHFHQSVQEIFEVNNLPVESWQ [AP1G2]	-0.154	-0.0347	–	–
MWRGRAGALLRVWGFWPTGVPRRRPLSCDAASQAGSNYPRCWNCGGPWGPGREDRFFCPQCRALQAPDPTRDYFSLMDCNRSFRVDTAKLQHRYQQLQRLVHPDFFSQRSQTEKDFSEKHSTLVNDAYKTLLAPLSRGLYLLKLHGIEIPERTDYEMDRQFLIEIMEINEKLAEAESEAAMKEIESIVKAKQKEFTDNVSSAFEQDDFEEAKEILTKMRYFSNIEEKIKLKKIPL [HSCB]	0.307	0.296	–	–
MWRMRGGATRRGSCCGGDGAADGRGPGRSGRARGGGSPSGGGGGVGWRGRADGARQQLEERFADLAASHLEAIRARDEWDRQNARLRQENARLRLENRRLKRENRSLFRQALRLPGEGGNGTPAEARRVPEEASTNRRARDSGREDEPGSPRALRARLEKLEAMYRRALLQLHLEQRGPRPSGDKEEQPLQEPDSGLRSRDSEPSGPWL [TUSC1]	0.105	0.541	–	–
MWTADEIAQLCYEHYGIRLPKKGKPEPNHEWTLLAAVVKIQSPADKACDTPDKPVQVTKEVVSMGTGTKCIGQSKMRKNGDILNDSHAEVIARRSFQRYLLHQLQLAATLKEDSIFVPGTQKGVWKLRRDLIFVFFSSHTPCGDASIIPMLEFEDQPCCPVFRNWAHNSSVEASSNLEAPGNERKCEDPDSPVTKKMRLEPGTAAREVTNGAAHHQSFGKQKSGPISPGIHSCDLTVEGLATVTRIAPGSAKVIDVYRTGAKCVPGEAGDSGKPGAAFHQVGLLRVKPGRGDRTRSMSCSDKMARWNVLGCQGALLMHLLEEPIYLSAVVIGKCPYSQEAMQRALIGRCQNVSALPKGFGVQELKILQSDLLFEQSRSAVQAKRADSPGRLVPCGAAISWSAVPEQPLDVTANGFPQGTTKKTIGSLQARSQISKVELFRSFQKLLSRIARDKWPHSLRVQKLDTYQEYKEAASSYQEAWSTLRKQVFGSWIRNPPDYHQFK [ADAT1]	-0.0783	0.316	–	–
MWYHRLSHLHSRLQDLLKGGVIYPALPQPNFKSLLPLAVHWHHTASKSLTCAWQQHEDHFELKYANTVMRFDYVWLRDHCRSASCYNSKTHQRSLDTASVDLCIKPKTIRLDETTLFFTWPDGHVTKYDLNWLVKNSYEGQKQKVIQPRILWNAEIYQQAQVPSVDCQSFLETNEGLKKFLQNFLLYGIAFVENVPPTQEHTEKLAERISLIRETIYGRMWYFTSDFSRGDTAYTKLALDRHTDTTYFQEPCGIQVFHCLKHEGTGGRTLLVDGFYAAEQVLQKAPEEFELLSKVPLKHEYIEDVGECHNHMIGIGPVLNIYPWNKELYLIRYNNYDRAVINTVPYDVVHRWYTAHRTLTIELRRPENEFWVKLKPGRVLFIDNWRVLHGRECFTGYRQLCGCYLTRDDVLNTARLLGLQA [TMLHE]	0.114	-0.167	–	–
NUFIP1	0.162	-0.519	–	–
POMGNT1	-0.0514	-0.257	–	–
SENP3	1.04	-1.5	–	–
SIPA1L2	0.275	-0.433	–	–
STK25	-0.12	0.291	–	–
SYNJ2	0.309	-0.61	–	–
WDFY3	0.0228	-0.364	–	–
